Assay results: patent US20230046744A1 (APO T B V, published 2023)

Key:
[1] = target: HLA-A*2402/… complex on CHO-S cells (human); assay: flow cytometry on CHO-S transfectants
[2] = target: T1, biotinylated HLA-A*2402/… complex (human, biotinylated complex, site not stated); assay: ELISA, biotinylated complexes on streptavidin plates
T1 construct: control complex on streptavidin plates

[3] = target: T2, biotinylated HLA-A*2402/… complex (human, biotinylated complex, site not stated); assay: ELISA, biotinylated complexes on streptavidin plates, dilution series of the antibody
T2 construct: recombinant complex on streptavidin plates

[4] = target: T3, HLA-A*0201/… with alanine at peptide position 4, on peptide-pulsed JY cells (human); assay: flow cytometry, peptide-pulsed JY cells
T3 construct: built from the parent peptide and the stated change

[5] = target: T4, HLA-A*0201/… with alanine at peptide position 5, on peptide-pulsed JY cells (human); assay: flow cytometry, peptide-pulsed JY cells
T4 construct: built from the parent peptide and the stated change

[6] = target: T5, HLA-A*0201/… with alanine at peptide position 3, on peptide-pulsed JY cells (human); assay: flow cytometry, peptide-pulsed JY cells
T5 construct: built from the parent peptide and the stated change

[7] = target: T6, HLA-A*0201/… with alanine at peptide position 6, on peptide-pulsed JY cells (human); assay: flow cytometry, peptide-pulsed JY cells
T6 construct: built from the parent peptide and the stated change

[8] = target: T7, CD3 molecule expressed on the surface of T cells (human, UniProt P07766 23-207); assay: flow cytometry on PBMCs
T7 construct: whole, on cells; CD3 complex on cells; also called CD3 on PBMCs; CD3 on surface of immune effector cells
T7 sequence (P07766 23-207): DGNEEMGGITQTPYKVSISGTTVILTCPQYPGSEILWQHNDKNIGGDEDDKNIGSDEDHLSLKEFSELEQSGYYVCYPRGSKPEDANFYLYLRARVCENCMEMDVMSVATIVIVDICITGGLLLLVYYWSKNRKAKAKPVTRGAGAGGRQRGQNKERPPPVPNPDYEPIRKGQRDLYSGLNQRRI

B1: murine 9A7 IgG (antibody, V domains shown)
VH: QVQLQQPGAELVKPGASVKLSCKASGYTFTSFWMHWVKQRPGQGLEWIGEIDSSDSYTNYNQKFKGKATLTVDKSSSTAYMQLSSLTSDDSAVYYCARRVGRGYFDYWGQGTTLTVSS
VL: DIVMTQSHKFMSTSVGDRVSITCKASQDVRTAVVWYQQKPGQSPKLLIYWASTRHTGVPDRFTGSGSGTDYILTISSVQAEDLALYYCQQYDTTPWTFGGGTKVEIK
notes: mouse IgG from hybridoma; also called mouse 9A7 IgG; 9A7 murine antibody
For B1, the binding result [1] was “no binding (tested: dilution series starting at 222 nM)”, the binding result [2] was “no binding (tested: dilution series starting at 100 nM)” and the IC50 [3] was 0.037 nM.

B2: 4A6 IgG (antibody, V domains shown)
VH: EVQLVQSGAEVKKPGSSVKVSCKASGGTFSSYAISWVRQAPGQGLEWMGGIIPIFGTADYAQKFQGRATITADESTSTAYMELSSLRSEDTAVYYCARDYDFWSGYYAGDVWGQGTTVTVSS
VL: QSALTQPASVSGSPGQSITISCTGTSSDVGGYNYVSWYQQHPGKAPKLMIYDVSNRPSGVSNRFSGSKSGNTASLTISGLQAEDEADYYCSSYTSSSTRVFGGGTKLTVL
notes: IgG detected with anti-human IgG; also called 4A6 antibody
B2: no binding [4]; no binding [5]; no binding [6]. B2: no binding [7].

B3: 4A6_SC_FV (scFv, V domains shown)
VH: EVQLVQSGAEVKKPGSSVKVSCKASGGTFSSYAISWVRQAPGQGLEWMGGIIPIFGTADYAQKFQGRATITADESTSTAYMELSSLRSEDTAVYYCARDYDFWSGYYAGDVWGQGTTVTVSS
VL: QSALTQPASVSGSPGQSITISCTGTSSDVGGYNYVSWYQQHPGKAPKLMIYDVSNRPSGVSNRFSGSKSGNTASLTISGLQAEDEADYYCSSYTSSSTRVFGGGTKLTVL
notes: scFv of 4A6; VH and VL are those named for 4A6; also called monospecific antibody fragment
B3: no binding (tested: 50 ng/ml) [8].
